Assay results reported in the supplement of paper PMC10567573.

B1: VTI1B (parent)
chain: ANETLAEMEEELRYAPLSFRNPMM
B2: FANCE (parent)
chain: AQVLMLGQILELPWKEETFLVLQS

Variants of: B1
Test: protein stability index of a GFP-peptide fusion (GPS, HEK-293T) (PSI 1-6); higher = more stable
Settings: c terminus: a fixed tail appended
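Note: lentivirally expressed fusions sorted by FACS into six bins by GFP to DsRed ratio, PSI derived from sequencing read proportions per bin multiplied by bin number.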

Protein stability index: each site, then its substitutions
N21: T 3.17, K 3.61, M 3.37, Q 3.76
R20: E 2.58, D 2.48, M 2.4, G 2.65, I 1.9, P 3.62, A 2.25
A1: D 2.69, Y 2.54, R 1.46, K 2.04, V 1.34, L 2.14
L12: M 2.28, F 3.14, S 4.33, I 2.99, R 2.59, G 2.62, C 4.37, D 4.49, A 3.14
R13: M 2.29, V 2.64, G 1.67, H 1.82, C 2.77, E 2.11, Q 2.37, N 1.94, W 2.03
P22: D 4.75, M 3.63, I 3.03, R 3.32, H 4.1, V 2.81, A 3.56, T 3.22
M24: V 3.04, T 3.97, N 3.2, L 2.26, G 3.72, Q 2.46, K 3.91
A6: K 2.78, M 2.86, V 2.16, N 2.75, R 2.67, E 2.77, L 1.88
E11: Q 1.95, W 1.55, T 3.25, F 1.66, S 3.02, N 2.81, I 2.69, D 2.13, H 2.89, L 2.29
N2: P 2.52, Q 2.27, H 2.9, L 2.58, S 1.94
F19: Q 3.96, T 4.44, G 4.5, M 4.23, A 3.94, N 4.3, Y 2.35, K 4.49
L5: V 2.78, F 2.96, I 2.16, R 2.14, D 3.62, N 3.05, C 2.69, Q 2.86, Y 2.4, T 3.01
S18: F 2.64, V 3.14, E 3.79, D 2.98, P 4.1, A 2.21
E9: L 2.45, I 3.61, D 2.85, F 2.71, H 3.27, T 2.94, C 2.33, Y 2.48
M8: Y 2.73, V 2.16, T 3.11, S 3.14, R 2.46, Q 2.62
L17: K 3.69, P 3.78, I 3.02, V 2.8, G 3.49, F 1.52, M 3.13, E 4.46
M23: Y 2.79, W 2.13, I 2.04, T 3.35, A 2.71, E 2.79, V 1.83, H 3.24, C 3.62, S 3.62, D 4.13, R 2.19
E7: Y 2.31, T 2.53, H 2.2, K 2.52, N 2.61, Q 2.31
T4: L 2.47, A 2.15, D 2.33, K 2.72, P 2.41, W 1.99, R 1.99, I 2.4, C 1.69
P16: V 1.3, G 2, T 2.77
E10: W 1.96, D 1.62, I 2.05, P 2.73, H 3.06, N 2.55, C 2.16, T 3.02
A15: R 1.76, H 1.9, Q 1.67, M 1.53
Y14: S 1.94, D 3.36, P 2.43, L 3.08, K 1.93, R 2.47, M 1.65, I 1.66
E3: V 2.13, H 2.43, D 2.97, K 2.85, S 2.27

Variants of: B2
Test: as above
Settings: c terminus: a fixed tail appended

Protein stability index, by site and new letter:
A1: R 1.83, V 3.34, K 1.56, Q 2.4, M 3.16, I 3.1, G 2.51, N 2.31
E17: Y 5.43, L 2.23, D 3.79, M 2.08, V 4.49
S24: F 2.67, C 2.6, W 3.86, D 1.83, N 3.35, Y 2.4
T18: Q 2.45, P 1.79, S 2.84, G 3.68, N 4.29
I9: N 1.7, P 2.75, T 2.91, A 3.41, G 1.73, K 1.6, R 2.46, L 3.3
Q2: D 2, A 2.05
L12: I 2.49, N 1.94, S 2.69, A 3.6, M 3.18, R 3.1, G 3.1, D 2.26, Q 2.95
E16: D 1.67, R 1.97, Y 3.33, A 3.98, K 2.78, H 3.11, N 2.23, F 4.03
L20: A 3.76, C 1.48, G 1.81, S 2.3
F19: E 2.25, S 1.75, C 1.54, H 3.46, P 1.55, Y 2.24, W 1.88, V 2.48, Q 1.51, N 2.02, R 2.1, A 1.77
L4: G 2.25, P 2.18, N 2.04, M 3.29, Q 2.4
W14: Y 2.51, C 2.55, N 3.44, K 1.96, G 2.07, E 2.01, T 2.08, D 1.58, R 4.06
M5: W 2.56, N 2.12, G 1.05, T 1.72, L 2.3, P 1.79, E 1.79, V 3.14
K15: P 4.32, L 2.82, T 3.16, V 5.16, S 2.58, E 2.32
L6: G 2.17, R 1.13, D 2.3, A 1.48, T 2.23, F 2.61, Y 3.4, C 3.67, E 1.44, Q 1.63
V3: N 1.97, S 1.95, H 2.45, I 2.75, D 1.81, L 3.37, A 3.44
L22: F 2.29, M 2.5, A 2.06, N 1.47, G 3.21, W 2.86, V 1.7, Y 2.56
P13: Y 2.88, W 3.76, I 2.77, F 3.35
L10: P 2.35, A 1.81, E 1.94, R 3.13, K 2.04, F 3.56, D 1.78
Q23: P 3.09, I 2.18, C 4.36, A 3.11, T 2.41, M 2.95
Q8: M 2.39, S 2.42, Y 3.2, V 3.43, T 2.34, R 2.63
V21: P 2.17, G 3.02, R 3.15, S 2.05, I 2.06, W 2.4
G7: E 3.09, W 3.13, V 2.8, S 2.32, F 2.22, I 3.43
E11: M 5.04, V 3.41, G 2.17, R 2.01, L 1.81, F 3.3
